Data: US20050032194

Columns and labels:
[1] = biological target: RsaA(723/VP2C), RsaA with a 112 amino acid segment of the VP2 surface glycoprotein of infectious pancreatic necrosis virus inserted at amino acid 723
[2] = biological target: RsaA(723/3XPilin12), RsaA with a 3X tandemly repeated P. aeruginosa pilin epitope inserted at amino acid 723
[3] = biological target: T1, RsaA, wild-type S-layer protein monomer of C. crescentus
T1 chain: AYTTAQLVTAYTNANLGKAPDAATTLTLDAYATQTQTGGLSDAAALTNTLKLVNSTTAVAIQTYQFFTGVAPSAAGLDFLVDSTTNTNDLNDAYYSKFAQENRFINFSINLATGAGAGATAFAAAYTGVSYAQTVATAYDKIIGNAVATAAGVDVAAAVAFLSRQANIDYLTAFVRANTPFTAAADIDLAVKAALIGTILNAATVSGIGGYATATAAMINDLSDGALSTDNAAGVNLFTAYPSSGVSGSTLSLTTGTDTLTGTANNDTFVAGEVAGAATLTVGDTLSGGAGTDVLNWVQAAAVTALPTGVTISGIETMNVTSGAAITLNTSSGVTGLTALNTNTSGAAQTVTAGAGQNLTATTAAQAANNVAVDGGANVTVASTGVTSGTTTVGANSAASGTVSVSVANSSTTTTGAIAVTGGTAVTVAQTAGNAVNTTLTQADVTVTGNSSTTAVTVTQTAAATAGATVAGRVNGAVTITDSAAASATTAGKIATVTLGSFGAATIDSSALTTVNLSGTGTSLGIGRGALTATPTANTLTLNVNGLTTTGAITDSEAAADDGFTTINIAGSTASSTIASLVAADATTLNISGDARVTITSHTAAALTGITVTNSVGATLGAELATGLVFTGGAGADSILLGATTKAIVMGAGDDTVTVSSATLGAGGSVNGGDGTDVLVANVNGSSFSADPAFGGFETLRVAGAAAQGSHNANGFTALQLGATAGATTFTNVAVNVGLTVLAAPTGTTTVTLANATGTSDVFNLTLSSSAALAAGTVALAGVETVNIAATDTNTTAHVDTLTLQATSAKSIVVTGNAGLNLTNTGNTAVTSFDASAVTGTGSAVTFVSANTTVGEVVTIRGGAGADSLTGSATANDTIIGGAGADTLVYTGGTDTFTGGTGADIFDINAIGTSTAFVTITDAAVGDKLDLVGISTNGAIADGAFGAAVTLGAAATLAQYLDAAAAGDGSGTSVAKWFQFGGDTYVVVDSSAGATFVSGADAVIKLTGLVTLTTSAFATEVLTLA

[4] = biological target: T2, RsaA(485/IHNVG20), full-length RsaA hybrid protein carrying the 20 amino acid IHNV-G peptide at amino acid 485
T2 chain: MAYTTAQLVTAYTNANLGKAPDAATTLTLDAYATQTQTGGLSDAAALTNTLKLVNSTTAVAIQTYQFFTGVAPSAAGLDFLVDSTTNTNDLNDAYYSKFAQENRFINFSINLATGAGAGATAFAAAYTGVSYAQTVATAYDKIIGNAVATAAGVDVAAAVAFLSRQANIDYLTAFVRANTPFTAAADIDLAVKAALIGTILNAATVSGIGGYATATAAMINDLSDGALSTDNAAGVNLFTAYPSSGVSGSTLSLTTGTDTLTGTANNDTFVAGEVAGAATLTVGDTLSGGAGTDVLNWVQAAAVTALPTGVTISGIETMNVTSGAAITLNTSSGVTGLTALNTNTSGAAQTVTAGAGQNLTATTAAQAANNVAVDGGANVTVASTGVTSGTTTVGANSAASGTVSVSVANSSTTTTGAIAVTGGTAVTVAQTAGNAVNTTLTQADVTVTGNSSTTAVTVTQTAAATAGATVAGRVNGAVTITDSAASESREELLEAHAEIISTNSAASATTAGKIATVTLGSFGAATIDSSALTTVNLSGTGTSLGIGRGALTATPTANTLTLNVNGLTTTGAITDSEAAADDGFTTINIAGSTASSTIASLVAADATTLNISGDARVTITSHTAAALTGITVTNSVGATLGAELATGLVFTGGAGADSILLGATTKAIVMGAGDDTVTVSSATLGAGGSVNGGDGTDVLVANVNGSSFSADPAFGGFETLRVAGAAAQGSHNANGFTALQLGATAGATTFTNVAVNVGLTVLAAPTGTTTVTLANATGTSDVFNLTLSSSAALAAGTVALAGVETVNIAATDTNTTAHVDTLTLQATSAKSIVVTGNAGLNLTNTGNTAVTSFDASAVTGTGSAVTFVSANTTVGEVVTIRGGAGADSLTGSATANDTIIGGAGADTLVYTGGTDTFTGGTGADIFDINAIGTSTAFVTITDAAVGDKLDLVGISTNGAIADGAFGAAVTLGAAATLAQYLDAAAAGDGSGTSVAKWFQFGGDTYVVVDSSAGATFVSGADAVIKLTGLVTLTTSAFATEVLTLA

B1: Sap (S-layer associated protease), native Caulobacter crescentus metalloprotease (protein)
chain: MCSQCERYGLNLHGDDVAPAVSGGEGPYAFVDADSRVGTVDGKKSLTVPEAALQLLRSEPGWSNQFLVPATVTYAFRATAPASMPSDTGGFSQFNAAQILQAEKALQAWSDVANITFVRVGQGTSGEAAYSDNASILFANFSTGSEGSAGFAYYPGNPAASSRSGDVWIKSTAGYNTNPTGSNYGGMVLVHELGHAIGIAHPSEYNASADDTLTYAVNATYYQDSRQYTVMSYFSEANTGGSFGGAYASSPLLDDIAAAQLAYGANMTTRTGDTVYGFNSTAGREWFAATSSSTRLVFAVWDAGGVDTLDFSGYRVAQTIDLRAGYFSSVGGLKGNVTIAMNAVIENAIGGSAADTINGNAVDNRLTGGAGADILDGGRGVDTAVFSGAYGNYTLTAATNGAWSVLDRVGTDATDTLANIEFLAFTDRTVTLVDSRVATAISNILRLQTFSASAEPLSKSLAASMAAGASHSDAIGQVSKTALSTSGVAVLAYQFFTGKTPTAAGMDYLVNPDGVNANNLNSAYYQSFNLENRYINFAVNLGKIGEGATKFLADYGGLSLFDATRKAYATIFGLTPTDDKVRALIDGRTDYFAAYGQDGPNGQGTKAAMVGWLMAEAGKADIGVYAKSAGAFFADQATKNVYGVDLIGVYAKPEYNLI
degradation of the hybrid protein in Sap+ JS4000 against Sap- JS4015 (SDS-PAGE of low-pH extracts) [1]: In all instances significant degradation of the hybrid full-length rsaA protein occurred in a wild-type host (JS4000) while none was detected in the Sap^- JS4015 strain
degradation of the hybrid protein in Sap+ JS4000 against Sap- JS4015 (SDS-PAGE of low-pH extracts) [2]: In all instances significant degradation of the hybrid full-length rsaA protein occurred in a wild-type host (JS4000) while none was detected in the Sap^- JS4015 strain
proteolytic cleavage (SDS-PAGE of low-pH extracts from Sap+ JS4000) [3]: Native RsaA (98 kDa) was not subjected to cleavage
proteolytic phenotype (cleavage of the hybrid protein; SDS-PAGE of low-pH extracts, complementation of Sap- JS4015 with the sap gene) [4]: When pBBR1MCS:Kmsap was introduced into JS4015, the proteolytic phenotype was restored
